{"source": "paper PMC8629194", "about": "(bioRxiv, 2021)", "binders": {"B1": {"name": "SARS-CoV RBD (residue 306–577) (domain or fragment)", "chain": "not shown"}}, "target": "wt ACE2_(615)-Fc (M27) (human, UniProt Q9BYF1 18-615)", "sequence (Q9BYF1 18-615)": "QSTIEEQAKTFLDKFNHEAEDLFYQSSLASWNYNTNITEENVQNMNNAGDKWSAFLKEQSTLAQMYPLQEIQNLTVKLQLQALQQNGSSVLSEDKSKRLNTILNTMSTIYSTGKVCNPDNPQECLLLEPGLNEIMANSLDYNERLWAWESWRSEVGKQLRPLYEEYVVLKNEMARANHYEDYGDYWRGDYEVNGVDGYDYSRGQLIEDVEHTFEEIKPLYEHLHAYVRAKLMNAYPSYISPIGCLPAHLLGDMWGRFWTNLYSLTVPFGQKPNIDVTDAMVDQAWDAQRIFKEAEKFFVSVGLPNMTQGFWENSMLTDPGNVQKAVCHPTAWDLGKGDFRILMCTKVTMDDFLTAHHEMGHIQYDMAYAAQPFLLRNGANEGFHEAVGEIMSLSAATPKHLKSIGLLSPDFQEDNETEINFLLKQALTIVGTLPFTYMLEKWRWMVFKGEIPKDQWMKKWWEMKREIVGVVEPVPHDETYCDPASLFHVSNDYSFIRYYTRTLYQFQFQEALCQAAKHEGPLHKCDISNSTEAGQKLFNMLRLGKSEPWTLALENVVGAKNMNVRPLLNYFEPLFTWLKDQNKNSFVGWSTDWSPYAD", "experiment": "SPR", "data": [{"binder": "B1", "values": [{"measurement": "fold, affinity of RBDwt for M27 over that of SARS-CoV-1 RBD", "value": "~5", "unit": "fold"}]}]}
